Measurements published in patent US20220073604A1 (ARGENX BVBA, published 2022).
Substitutions are numbered along the chain they refer to. Numbers in names are those of the source. Where “and” joins values, the source holds several entries; their conditions need not be identical. Identical values can stand only once. Values belong to the binder of their own block, whether it stands above or below them.

What was measured:
[1] = biological target: bacterially produced human IL-6 (human) (UniProt P05231); assay: SPR; purified Fab
[2] = biological target: eukaryotically produced human IL-6 (human) (UniProt P05231); assay: SPR; purified Fab
[3] = biological target: bacterially produced human IL-6 (human) (UniProt P05231); assay: SPR (Biacore), purified Fab
[4] = biological target: eukaryotically produced human IL-6 (human) (UniProt P05231); assay: SPR (Biacore), purified Fab
[5] = biological target: IL-6 surfaces of Table 8 (Bact, euk, cyno), average; assay: SPR (Biacore), off-rate screen
[6] = biological target: bacterially produced human IL-6 (human) (UniProt P05231); assay: SPR; purified Fab; ratio bact to euk IL-6
[7] = biological target: T1, human IL-6 (human, UniProt P05231 30-212); assay: SPR; purified Fab; average of the IL-6 channels
[8] = biological target: IL-6 (bact-hIL-6, euk-hIL-6 and bact-cy IL-6; 'average binding' of Table 21); assay: average binding level in the off-rate screen (unit not given; n = 3)
[9] = biological target: T2, eukaryotically produced human IL-6 (human, UniProt P05231 30-212); assay: off-rate of Fab 111A7 variant on euk-hIL-6 (binding kinetics, SPR presumed; n = 3)
T2 construct: also called euk-hIL-6; EUK IL-6

[10] = biological target: T3, bacterially produced human IL-6 (human, UniProt P05231 30-212); assay: off-rate of Fab 111A7 variant on bact-hIL-6 (binding kinetics, SPR presumed; n = 3)
T3 construct: also called bact-hIL-6; BACT IL-6

[11] = biological target: T4, bacterially produced cynomolgus monkey IL-6 (cynomolgus monkey, UniProt P79341 28-212, limits assumed); assay: off-rate of Fab 111A7 variant on bact-cy IL-6 (binding kinetics, SPR presumed; n = 3)
T4 construct: also called bact-cy IL-6; HIS-cyIL-6

[12] = biological target: T5, bacterially produced human IL-6 (human, UniProt P05231 30-212); assay: SPR (Biacore), periplasmic Fab
T5 construct: Immobilised on the Biacore chip; also called BACT IL-6 (2-1); bactIL-6
Procedure: (§1) The binding kinetics of periplasmic fractions of bacteria containing the mutant Fabs were tested using surface Plasmon resonance (Biacore) and the off-rate for each mutant was determined.

[13] = biological target: T6, eukaryotically produced human IL-6 (human, UniProt P05231 30-212); assay: SPR (Biacore), periplasmic Fab
T6 construct: Immobilised on the Biacore chip; also called Euk IL-6; EUK IL-6 (3-1)
Procedure: as §1

[14] = biological target: IL-6 (bact-hIL-6, euk-hIL-6 and bact-cy IL-6; 'average binding' of Table 21); assay: average binding level in the off-rate screen (unit not given; n = 4)
[15] = biological target: T4, bacterially produced cynomolgus monkey …; assay: off-rate of Fab 111A7 variant on bact-cy IL-6 (binding kinetics, SPR presumed; n = 4)
[16] = biological target: IL-6 (bact-hIL-6, euk-hIL-6 and bact-cy IL-6; 'average binding' of Table 21); assay: average binding level in the off-rate screen (unit not given; n = 2)
[17] = biological target: T4, bacterially produced cynomolgus monkey …; assay: off-rate of Fab 111A7 variant on bact-cy IL-6 (binding kinetics, SPR presumed; n = 2)
[18] = biological target: IL-6 (bact-hIL-6, euk-hIL-6 and bact-cy IL-6; 'average binding' of Table 21); assay: average binding level in the off-rate screen (unit not given; n = 5)
[19] = biological target: T2, eukaryotically produced human IL-6; assay: off-rate of Fab 111A7 variant on euk-hIL-6 (binding kinetics, SPR presumed; n = 5)
[20] = biological target: T3, bacterially produced human IL-6; assay: off-rate of Fab 111A7 variant on bact-hIL-6 (binding kinetics, SPR presumed; n = 5)
[21] = biological target: T4, bacterially produced cynomolgus monkey …; assay: off-rate of Fab 111A7 variant on bact-cy IL-6 (binding kinetics, SPR presumed; n = 5)
[22] = biological target: IL-6 (bact-hIL-6, euk-hIL-6 and bact-cy IL-6; 'average binding' of Table 21); assay: average binding level in the off-rate screen (unit not given; n = 1)
[23] = biological target: T2, eukaryotically produced human IL-6; assay: off-rate of Fab 111A7 variant on euk-hIL-6 (binding kinetics, SPR presumed; n = 1)
[24] = biological target: T3, bacterially produced human IL-6; assay: off-rate of Fab 111A7 variant on bact-hIL-6 (binding kinetics, SPR presumed; n = 1)
[25] = biological target: T4, bacterially produced cynomolgus monkey …; assay: off-rate of Fab 111A7 variant on bact-cy IL-6 (binding kinetics, SPR presumed; n = 1)
[26] = biological target: T7, bacterially produced human IL-6 (human, UniProt P05231 30-212); assay: SPR; purified Fab
T7 construct: also called bactIL-6; prokaryotic IL-6

[27] = biological target: T8, eukaryotically produced human IL-6 (human, UniProt P05231 30-212); assay: SPR; purified Fab
T8 construct: also called eukIL-6; Euk IL-6

[28] = biological target: T1, human IL-6; assay: comparison of affinities after VL shuffling

- koff [1]: 9.41e-05 s⁻¹
- koff [2]: 8.59e-05 s⁻¹
- Kd [3]: 0.28 nM
- koff [3]: 7.7e-05 s⁻¹
- kon [3]: 280000 M⁻¹ s⁻¹
- Kd [4]: 0.22 nM
- koff [4]: 7.7e-05 s⁻¹
- kon [4]: 360000 M⁻¹ s⁻¹
- Average binding (RU) [5]: 338 RU and 340 RU and 347 RU
- ratio bact/euk [6]: 1.05
- average binding [7]: 207
B1: BE8-Fab (Fab, from another filing, V domains shown)
VH: QVTLKESGPGILKPSQTLSLTCSFSGFSLSTSGMGVGWIRQPSGKGLEWLAHIWWDDDKYYNPSLKSQLTISKDTSRNQVFLKITSVDTADTATYYCARSYDDYLYYALDYWGQGTSVTVSS
VL: DIVMTQSPATLSVTPGDRVSLSCRASQSISDYLHWYQQKSHESPRLLIKSVSQSISGIPSRFSGSGSGSDFTLSINSVEPEDVGVYYCQNGHSFPLTFGAGTKLELK

- average binding [8]: 102
- koff [9]: 4.77e-05 s⁻¹
- koff [10]: 8.5e-05 s⁻¹
- koff [11]: 0.000131 s⁻¹
B2: Fab 111A7M_A (CMC optimized variant of Fab 111A7, CDR3 methionine to alanine) (Fab, V domains shown)
VH: EVQLLESGGGLVQPGGSLRLSCAASGFTFSSYAMSWVRQAPGKGPEWVSRISAGGGSTYYGDSVKGRFTISRDNSKNTLYLQMNSLRAEDTAVYYCANRAGWGAGDYWGQGTLVTVSS
VL: QTVVTQEPSFSVSPGGTVTLTCGLSSGSVTASNYPGWYQQTPGQAPRALIYSTNDRHSGVPDRFSGSISGNKAALTITGAQAEDEADYYCALDIGDITEFGGGTQLTVL
notes: Fab; The VL is that of 111A7; also called M98X: A

- koff [12]: 5e-05 s⁻¹
- koff [13]: 4.67e-05 s⁻¹
B3: 111A7 Fab (W98, M100) (Fab, V domains shown)
VH: B2 VH with A104M
VL: B2 VL
notes: also called WGM

- average binding [14]: 109
- koff [15]: 0.000222 s⁻¹
B4: Fab 111A7 with the CDR3 methionine changed to H (Fab, V domains shown)
VH: B2 VH with A104H
VL: B2 VL

- average binding [16]: 130
- koff [17]: 0.000144 s⁻¹
B5: Fab 111A7 with the CDR3 methionine changed to T (Fab, V domains shown)
VH: B2 VH with A104T
VL: B2 VL

- average binding [16]: 163
- koff [17]: 0.000242 s⁻¹
B6: Fab 111A7 with the CDR3 methionine changed to V (Fab, V domains shown)
VH: B2 VH with A104V
VL: B2 VL

- average binding [18]: 118
- koff [19]: 5.46e-05 s⁻¹
- koff [20]: 9.81e-05 s⁻¹
- koff [21]: 0.000146 s⁻¹
B7: Fab 111A7M_S (CMC optimized variant of Fab 111A7, CDR3 methionine to serine) (Fab, V domains shown)
VH: B2 VH with A104S
VL: B2 VL
notes: Fab; The VL is that of 111A7; also called M98X: S

- average binding [22]: 141
- koff [23]: 6.78e-05 s⁻¹
- koff [24]: 0.000117 s⁻¹
- koff [25]: 0.000184 s⁻¹
B8: Fab 111A7M_L (CMC optimized variant of Fab 111A7, CDR3 methionine to leucine) (Fab, V domains shown)
VH: B2 VH with A104L
VL: B2 VL
notes: Fab; The VL is that of 111A7; also called M98X: L

- koff [26]: 8e-05 s⁻¹
- koff [27]: 3.3e-05 s⁻¹
- fold affinity against parental 20A4 [28]: 10 fold
B9: Fab 68F2 (Fab, V domains shown)
VH: EVQLQESGPGLVKPSQTLSLTCTVSGGSITTRYYAWSWIRQPPGKGLEWMGVIDYDGDTYYSPSLKSRTSISWDTSKNQFSLQLSSVTPEDTAVYYCARDPDVVTGFHYDYWGQGTQVTVSS
VL: QSALTQPPLVSGTPGQTVTISCAGANNDIGTYAYVSWYQQLPGTAPKLLIYKVTTRASGIPSRFSGSKSGNTASLTISGLQSEDEADYYCASYRNFNNAVFGRGTHLTVLG
notes: VL-shuffled Fab of 20A4; for the crystal the Fab was made from 68F2 mAb with papain; also called 68F2 Fab
